The values below come from patent US20250281611A1 (BIOSCEPTRE AUST, published 2025).

Experiment [1] concerns the target T1, nfP2X7 CAR 1.
T1 construct: CAR-positive cells gated by the co-expressed EGFR marker; also called nfP2X7 targeted CAR; nfP2X7 CAR on EGFR+ T cells
As to the kind of experiment: flow cytometry, nfP2X7 CAR 1 T cells (EGFR+ gate), anti-His-FITC detection. As to the method: (§1) nfP2X₇ CAR T cells were incubated with different BRiDGE variants at saturating concentrations. […] The MFI intensity correlates with the number of secondary bound antibodies bound to the BRiDGEs that are only detected if they are bound to the CAR T cells. EGFR was used as a marker gene to detect the CAR expression. Thus, the EGFR+ T cell population was defined as the CAR expressing cells and the EGFR− T cell population was defined as the CAR negative subset. MFI: median fluorescence intensity. EGFR: epidermal growth factor receptor. BLItz: Bio-Layer interferometry (BLI) technology using HIS-tag identification tips. HIS-tag MFI Ratio: relative index that is calculated by the testing condition MFI divided by the control MFI, which corresponds to the MFI measured on EGFR+ T cells (defined as CAR positive cells) divided by the MFI measured on the EGFR− T cells (defined as CAR negative cells). […] The higher the MFIR, the stronger the binding.

Experiment [2] deals with T1, nfP2X7 CAR 1. As to the kind of experiment: flow cytometry, anti-His-FITC, MFI on EGFR+ (CAR+) over EGFR- (CAR-) T cells. As to the method:
as §1
For orientation: A flow cytometer gives signals particle by particle.

The target in experiment [3] is T1, nfP2X7 CAR 1. Kind of experiment: flow cytometry, anti-His-FITC, MFI on EGFR+ (CAR+) T cells over background 0.44. As to the method: as §1
In experiment [4] the target is T2, CD19 (UniProt P15391 20-556, limits assumed).
T2 construct: whole, on cells; also called CD19 on JeKo-1
T2 sequence (looked up): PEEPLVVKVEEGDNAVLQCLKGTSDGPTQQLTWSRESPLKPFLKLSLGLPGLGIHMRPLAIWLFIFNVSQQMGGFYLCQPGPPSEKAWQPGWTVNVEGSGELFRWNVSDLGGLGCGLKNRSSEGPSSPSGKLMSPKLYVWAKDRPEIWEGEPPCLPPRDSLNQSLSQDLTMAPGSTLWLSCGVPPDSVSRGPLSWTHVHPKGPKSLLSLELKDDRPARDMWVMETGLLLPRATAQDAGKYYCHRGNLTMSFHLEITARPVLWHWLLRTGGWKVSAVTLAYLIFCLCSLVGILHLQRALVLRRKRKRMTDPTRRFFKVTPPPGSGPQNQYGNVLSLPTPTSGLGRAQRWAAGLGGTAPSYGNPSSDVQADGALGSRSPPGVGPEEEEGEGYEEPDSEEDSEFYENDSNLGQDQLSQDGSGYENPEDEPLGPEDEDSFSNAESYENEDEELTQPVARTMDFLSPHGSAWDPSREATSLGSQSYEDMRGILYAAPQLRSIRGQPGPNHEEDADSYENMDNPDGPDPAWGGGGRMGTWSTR
Kind of experiment: flow cytometry, JeKo-1 cells, BIL03s-AF647 detection, MFI over no-bridge control. As to the method: (§2) JeKo-1 cells were incubated with different CD19 BRiDGE variants at saturating concentrations. […] The MFI intensity correlates with the number of secondary bound antibodies bound to the CD19 BRiDGE variants that are only detected if they are bound to the JeKo-1 cells. MFI: median fluorescence intensity. BLitz: Bio-Layer interferometry (BLI) technology using HIS-tag identification tips. […] The higher the MFIR, the stronger the binding.

For experiment [5], the target named is T2, CD19. Kind of experiment: flow cytometry, JeKo-1 cells, bridge at saturating conc., BIL03s-AF647 detection. As to the method: as §2
The target in experiment [6] is T2, CD19. Kind of experiment: flow cytometry, JeKo-1 cells, anti-His-FITC detection, MFI over no-bridge control. The method, then: as §2
The target in experiment [7] is T2, CD19. As to the kind of experiment: flow cytometry, JeKo-1 cells, bridge at saturating conc., anti-His-FITC detection. As to the method:
as §2

B1: CD19 BRIDGE variant B8 (Fab, V domains shown)
VH: EVQLVESGGGLVKPGGSLKLSCAASGYTFTSYVMHWVRQAPGKGLEWIGYINPYNDGTKYNEKFQGRVTISSDKSISTAYMELSSLRSEDTAMYYCARGTYYYGTRVFDYWGQGTLVTVSS
VL: DIVMTQSPATLSLSPGERATLSCRSSKSLQNVNGNTYLYWFQQKPGQSPQLLIYRMSNLNSGVPDRFSGSGSGTEFTLTISSLEPEDFAVYYCMQHLEYPITFGAGTKLEIKR
Regarding B1, the “MFI HisTag FITC in EGFR+ Population” value in experiment [1] is 2.53. Besides, the “HisTag MFI Ratio of EGFR+/EGFR-” value in experiment [2] came out at 4.4. The “HisTag MFI Ratio (background 0.44)” value in experiment [3] stood at 5.8. Also, the “MFIR BIL03 AF647” value in experiment [4] amounted to 23. In addition, in experiment [5], the “MFI Bil03 AF647” value turned out to be 10.6. Also, the “MFIR HisTag FITC” value in experiment [6] was 4.65. Moreover, the “MFI HisTag FITC” value in experiment [7] stood at 3.58.

B2: CD19 BRIDGE variant B13 (Fab, V domains shown)
VH: EVQLVESGGGLVKPGGSLKLSCAASGYTFTSYVMHWVRQAPGKGLEWIGYINPYNDGTKYNEKFQGRVTISSDKSISTAYMELSSLRSEDTAMYYCARGTYYYGTRVFDYWGQGTLVTVSS
VL: DIVMTQSPATLSLSPGERATLSCRSSKSLQNVNGNTYLYWFQQKPGQSPQLLIYRMSNLNSGVPDRFSGSGSGTEFTLTISSLEPEDFAVYYCMQHLEYPITFGAGTKLEIKR
In the case of B2, the “MFI HisTag FITC in EGFR+ Population” value in experiment [1] came out at 2.13. Also, in experiment [2], the “HisTag MFI Ratio of EGFR+/EGFR-” value amounted to 4.1. Besides, in experiment [3], the “HisTag MFI Ratio (background 0.44)” value stood at 4.8. For the same molecule, in experiment [4], the “MFIR BIL03 AF647” value was 11.5. Moreover, in experiment [5], the “MFI Bil03 AF647” value was determined as 5.28. For the same molecule, in experiment [6], the “MFIR HisTag FITC” value is 3.88. In experiment [7], the “MFI HisTag FITC” value worked out at 2.99.

B3: CD19 BRIDGE variant B9 (Fab, V domains shown)
VH: EVQLVESGGGLVKPGGSLKLSCAASGYTFTSYVMHWVRQAPGKGLEWIGYINPYNDGTKYNEKFQGRVTISSDKSISTAYMELSSLRSEDTAMYYCARGTYYYGTRVFDYWGQGTLVTVSS
VL: DIVMTQSPATLSLSPGERATLSCRSSKSLQNVNGNTYLYWFQQKPGQSPQLLIYRMSNLNSGVPDRFSGSGSGTEFTLTISSLEPEDFAVYYCMQHLEYPITFGAGTKLEIKR
For the molecule B3, the “MFI HisTag FITC in EGFR+ Population” value in experiment [1] amounted to 2.32. For the same molecule, in experiment [2], the “HisTag MFI Ratio of EGFR+/EGFR-” value worked out at 4.1. In addition, the “HisTag MFI Ratio (background 0.44)” value in experiment [3] worked out at 5.3. In addition, the “MFIR BIL03 AF647” value in experiment [4] amounted to 10.5. Moreover, in experiment [5], the “MFI Bil03 AF647” value was found to be 4.82. Moreover, in experiment [6], the “MFIR HisTag FITC” value came to 3.9. The “MFI HisTag FITC” value in experiment [7] is 3.

B4: CD19 BRIDGE variant B10 (Fab)
heavy: EVQLVESGGGLVKPGGSLKLSCAASGYTFTSYVMHWVRQAPGKGLEWIGYINPYNDGTKYNEKFQGRVTISSDKSISTAYMELSSLRSEDTAMYYCARGTYYYGTRVFDYWGQGTLVTVSSASTKGPSVFPLAPSSKSTSGGTAALGCLVKDYFPEPVTVSWNSGALTSGVHTFPAVLQSSGLYSLSSVVTVPSSSLGTQTYICNVNHKPSNTKVDKKVEPKSCHHHHHH
light: GHNYTTRNILPGLNITSTFHKTSGSGKEPKSSDKTHTGSDIVMTQSPATLSLSPGERATLSCRSSKSLQNVNGNTYLYWFQQKPGQSPQLLIYRMSNLNSGVPDRFSGSGSGTEFTLTISSLEPEDFAVYYCMQHLEYPITFGAGTKLEIKRTVAAPSVFIFPPSDEQLKSGTASVVCLLNNFYPREAKVQWKVDNALQSGNSQESVTEQDSKDSTYSLSSTLTLSKADYEKHKVYACEVTHQGLSSPVTKSFNRGEC
As to B4, the “MFI HisTag FITC in EGFR+ Population” value in experiment [1] is 2.26. Moreover, the “HisTag MFI Ratio of EGFR+/EGFR-” value in experiment [2] was 4.3. In addition, the “HisTag MFI Ratio (background 0.44)” value in experiment [3] is 5.1. Besides, the “MFIR BIL03 AF647” value in experiment [4] amounted to 16.8. Moreover, the “MFI Bil03 AF647” value in experiment [5] was 7.71. For the same molecule, in experiment [6], the “MFIR HisTag FITC” value turned out to be 4.25. The “MFI HisTag FITC” value in experiment [7] is 3.27.

B5: CD19 BRIDGE variant B6 (Fab)
heavy: EVQLVESGGGLVKPGGSLKLSCAASGYTFTSYVMHWVRQAPGKGLEWIGYINPYNDGTKYNEKFQGRVTISSDKSISTAYMELSSLRSEDTAMYYCARGTYYYGTRVFDYWGQGTLVTVSSASTKGPSVFPLAPSSKSTSGGTAALGCLVKDYFPEPVTVSWNSGALTSGVHTFPAVLQSSGLYSLSSVVTVPSSSLGTQTYICNVNHKPSNTKVDKKVEPKSCHHHHHH
light: GHNYTTRNILPGLNITSTFHKTSGSGKGGGSEPKSSDKTHTDIVMTQSPATLSLSPGERATLSCRSSKSLQNVNGNTYLYWFQQKPGQSPQLLIYRMSNLNSGVPDRFSGSGSGTEFTLTISSLEPEDFAVYYCMQHLEYPITFGAGTKLEIKRTVAAPSVFIFPPSDEQLKSGTASVVCLLNNFYPREAKVQWKVDNALQSGNSQESVTEQDSKDSTYSLSSTLTLSKADYEKHKVYACEVTHQGLSSPVTKSFNRGEC
Turning to B5, the “MFI HisTag FITC in EGFR+ Population” value in experiment [1] came to 1.99. The “HisTag MFI Ratio of EGFR+/EGFR-” value in experiment [2] was 4.1. Also, the “HisTag MFI Ratio (background 0.44)” value in experiment [3] came to 4.5. Also, the “MFIR BIL03 AF647” value in experiment [4] is 11.5. The “MFI Bil03 AF647” value in experiment [5] was 5.29. Moreover, the “MFIR HisTag FITC” value in experiment [6] is 4.32. Also, the “MFI HisTag FITC” value in experiment [7] is 3.33.

B6: CD19 BRIDGE variant B12 (Fab)
heavy: EVQLVESGGGLVKPGGSLKLSCAASGYTFTSYVMHWVRQAPGKGLEWIGYINPYNDGTKYNEKFQGRVTISSDKSISTAYMELSSLRSEDTAMYYCARGTYYYGTRVFDYWGQGTLVTVSSASTKGPSVFPLAPSSKSTSGGTAALGCLVKDYFPEPVTVSWNSGALTSGVHTFPAVLQSSGLYSLSSVVTVPSSSLGTQTYICNVNHKPSNTKVDKKVEPKSCHHHHHH
light: GHNYTTRNILPGLNITSTFHKTSGSGKGGGGSEPKSSDKTHTGSDIVMTQSPATLSLSPGERATLSCRSSKSLQNVNGNTYLYWFQQKPGQSPQLLIYRMSNLNSGVPDRFSGSGSGTEFTLTISSLEPEDFAVYYCMQHLEYPITFGAGTKLEIKRTVAAPSVFIFPPSDEQLKSGTASVVCLLNNFYPREAKVQWKVDNALQSGNSQESVTEQDSKDSTYSLSSTLTLSKADYEKHKVYACEVTHQGLSSPVTKSFNRGEC
Consider B6, for which the “MFI HisTag FITC in EGFR+ Population” value in experiment [1] was determined as 2.12. In experiment [2], the “HisTag MFI Ratio of EGFR+/EGFR-” value stood at 4.2. Further, the “HisTag MFI Ratio (background 0.44)” value in experiment [3] came out at 4.8. For the same molecule, in experiment [4], the “MFIR BIL03 AF647” value amounted to 19.7. Further, the “MFI Bil03 AF647” value in experiment [5] was determined as 9.08. In experiment [6], the “MFIR HisTag FITC” value is 4.36. Also, the “MFI HisTag FITC” value in experiment [7] was determined as 3.36.

B7: CD19 BRIDGE variant B11 (Fab)
heavy: EVQLVESGGGLVKPGGSLKLSCAASGYTFTSYVMHWVRQAPGKGLEWIGYINPYNDGTKYNEKFQGRVTISSDKSISTAYMELSSLRSEDTAMYYCARGTYYYGTRVFDYWGQGTLVTVSSASTKGPSVFPLAPSSKSTSGGTAALGCLVKDYFPEPVTVSWNSGALTSGVHTFPAVLQSSGLYSLSSVVTVPSSSLGTQTYICNVNHKPSNTKVDKKVEPKSCHHHHHH
light: GHNYTTRNILPGLNITSTFHKTSGSGKGSEPKSSDKTHTGSDIVMTQSPATLSLSPGERATLSCRSSKSLQNVNGNTYLYWFQQKPGQSPQLLIYRMSNLNSGVPDRFSGSGSGTEFTLTISSLEPEDFAVYYCMQHLEYPITFGAGTKLEIKRTVAAPSVFIFPPSDEQLKSGTASVVCLLNNFYPREAKVQWKVDNALQSGNSQESVTEQDSKDSTYSLSSTLTLSKADYEKHKVYACEVTHQGLSSPVTKSFNRGEC
In the case of B7, the “MFI HisTag FITC in EGFR+ Population” value in experiment [1] was 2. Further, the “HisTag MFI Ratio of EGFR+/EGFR-” value in experiment [2] is 4. The “HisTag MFI Ratio (background 0.44)” value in experiment [3] worked out at 4.5. In experiment [4], the “MFIR BIL03 AF647” value was 14. The “MFI Bil03 AF647” value in experiment [5] came to 6.43. For the same molecule, in experiment [6], the “MFIR HisTag FITC” value turned out to be 4. In addition, the “MFI HisTag FITC” value in experiment [7] was found to be 3.08.
